Our source for the SPOT signal as a fraction of Bim BH3's signal on the same receptor and array values is publication PMC4072508, “Genome-Wide Prediction and Validation of Peptides That Bind Human Prosurvival Bcl-2 Proteins” (PLoS Computational Biology, 2014).

T1: Bfl-1, Q16548
T1 chain: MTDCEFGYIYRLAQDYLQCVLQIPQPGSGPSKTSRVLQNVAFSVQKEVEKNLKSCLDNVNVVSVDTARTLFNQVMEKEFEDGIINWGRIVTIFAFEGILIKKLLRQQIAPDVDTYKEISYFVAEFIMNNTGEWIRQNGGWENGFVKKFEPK

T2: Mcl-1, Q07820
T2 chain: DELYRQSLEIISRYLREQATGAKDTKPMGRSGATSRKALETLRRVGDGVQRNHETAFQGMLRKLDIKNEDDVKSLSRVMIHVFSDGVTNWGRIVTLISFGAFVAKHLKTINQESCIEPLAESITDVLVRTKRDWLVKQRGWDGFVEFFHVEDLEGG

T3: Bcl-w, Q92843
T3 chain: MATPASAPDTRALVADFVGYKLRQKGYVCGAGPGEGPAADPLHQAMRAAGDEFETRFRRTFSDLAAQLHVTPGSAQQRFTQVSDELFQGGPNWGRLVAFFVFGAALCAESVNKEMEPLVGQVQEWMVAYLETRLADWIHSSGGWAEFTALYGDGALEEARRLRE

B1: CYBB (peptide)
chain: APEEDFFSIHDRIVGDWTEGLFNACG
B2: FBXL3 (peptide)
chain: CHGLRELALNDHLLSDELLLALSSEK
B3: SETD2 (peptide)
chain: HVDGLHSSEELRNLGWDFSQEKPSTT
B4: PCNA (peptide)
chain: SGEFARICRDLSHIGDAVVISCAKDG
B5: HDAC2 (peptide)
chain: MEMYQPSAVVDQCGADSLSGDRLGCF
B6: PMAIP1 (peptide)
chain: AELEVECATQDRRFGDKLNFRQKLLN
B7: FOLH1B (peptide)
chain: PFDCRDYAVVLRKYADKIYNISMKHP
B8: CTSL2 (peptide)
chain: SQGKHGFTMADNAFGDMTNEEFRQMM
B9: SGCA (peptide)
chain: LFWTPLLVVLLAGLGDTEAQQTTLHP
B10: RNF160 (peptide)
chain: WLKGDILGEKLVNLADCLCNEDLESR
B11: RAD9B (peptide)
chain: VKVFGKAVQALSRISDEFWLDPSKKG
B12: IQGAP2 (peptide)
chain: ISSLDLLPYGLRYIAKVLKNSIHEKF
B13: DNAH10 (peptide)
chain: SMRRNAMGVGLVFEADLFTTRHISHW
B14: FAM149A (peptide)
chain: CGEWTRRSLHLRVLGRQLILPTDKGV
B15: RNF160 (peptide)
chain: WLKGDILGEKDVNLADCLCNEDLESR
B16: TNKS (peptide)
chain: AGLDMNISQFLKSLGLEHLRDIFETE
B17: SYT1 (peptide)
chain: FVGYNSTGAELRHWLDMLANPRRPIA
B18: RAD9A (peptide)
chain: VKVLGKAVHSLSRIGDELYLEPLEDG
B19: ADAMTS14 (peptide)
chain: AFGLGDLPNLLGLVLDQLGDTERKRR
B20: VCAM1 (peptide)
chain: KIETTPESRYLAQILDSVSLTCSTTG
B21: P2RX7 (peptide)
chain: QCPIFRLGDIDRETGDNFSDVAIQGG
B22: COL2A1 (peptide)
chain: VLLTLLVAAVDRCQGQDVQEAGSCVQ
B23: POFUT2 (peptide)
chain: TRRSMVFARHLREVLDEFRSRHLNST
B24: SRL (peptide)
chain: GYPFNDVCQWFIDRLDLIFVVFDPTK
B25: SPHKAP (peptide)
chain: TSRINEVQVNDSLLGDDLLLPAQSTL
B26: BIK (peptide)
chain: MEGSDALALRLACIGDEMDVSLRAPR
B27: DZIP3 (peptide)
chain: NGGLLEFHKSDQEIGDKNDHWFDIDP

Bcl-xL, Q07817, sequence (Q07817 1-209): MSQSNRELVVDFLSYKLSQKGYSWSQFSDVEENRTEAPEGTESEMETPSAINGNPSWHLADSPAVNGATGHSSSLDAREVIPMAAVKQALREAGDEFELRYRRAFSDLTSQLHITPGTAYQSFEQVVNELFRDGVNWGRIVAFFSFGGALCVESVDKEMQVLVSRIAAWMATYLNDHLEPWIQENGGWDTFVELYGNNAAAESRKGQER

For the first assay, the target named is T1, Bfl-1, Q16548. In words: peptide SPOT array, c-Myc-tagged receptor at 1 uM or 100 nM, anti-c-Myc-Cy3.
B1 came in with an SPOT signal as a fraction of Bim BH3's signal on the same receptor and array of 0.03.

B2 showed an SPOT signal as a fraction of Bim BH3's signal on the same receptor and array of 0.04.

Consider B3, for which the SPOT signal as a fraction of Bim BH3's signal on the same receptor and array was 0.02.

B4 displayed an SPOT signal as a fraction of Bim BH3's signal on the same receptor and array of 0.03.

As for B5, the SPOT signal as a fraction of Bim BH3's signal on the same receptor and array stood at 0.03.

The molecule B6 came in with an SPOT signal as a fraction of Bim BH3's signal on the same receptor and array of 0.07.

B7 yielded an SPOT signal as a fraction of Bim BH3's signal on the same receptor and array of 0.63.

In turn, B8 showed an SPOT signal as a fraction of Bim BH3's signal on the same receptor and array of 0.05.

Take B9: the SPOT signal as a fraction of Bim BH3's signal on the same receptor and array stood at 0.04.

As for B10, the SPOT signal as a fraction of Bim BH3's signal on the same receptor and array was 0.06.

With B11, the SPOT signal as a fraction of Bim BH3's signal on the same receptor and array is 0.23.

For B12, the SPOT signal as a fraction of Bim BH3's signal on the same receptor and array stood at 0.64.

Molecule B13 gave an SPOT signal as a fraction of Bim BH3's signal on the same receptor and array of 0.3.

On to B14, for which the SPOT signal as a fraction of Bim BH3's signal on the same receptor and array is 0.7.

As to B15, the SPOT signal as a fraction of Bim BH3's signal on the same receptor and array amounted to 0.05.

As for B16, the SPOT signal as a fraction of Bim BH3's signal on the same receptor and array was 0.03.

As for B17, the SPOT signal as a fraction of Bim BH3's signal on the same receptor and array turned out to be 0.21.

B18 showed an SPOT signal as a fraction of Bim BH3's signal on the same receptor and array of 0.03.

B19 came in with an SPOT signal as a fraction of Bim BH3's signal on the same receptor and array of 0.05.

For B20, the SPOT signal as a fraction of Bim BH3's signal on the same receptor and array was 0.04.

In turn, B21 showed an SPOT signal as a fraction of Bim BH3's signal on the same receptor and array of 0.03.

B22 returned an SPOT signal as a fraction of Bim BH3's signal on the same receptor and array of 0.03.

For the molecule B23, the SPOT signal as a fraction of Bim BH3's signal on the same receptor and array amounted to 0.61.

Molecule B24 came in with an SPOT signal as a fraction of Bim BH3's signal on the same receptor and array of 0.05.

Turning to B25, the SPOT signal as a fraction of Bim BH3's signal on the same receptor and array came to 0.03.

In the case of B26, the SPOT signal as a fraction of Bim BH3's signal on the same receptor and array came to 0.43.

Molecule B27 gave an SPOT signal as a fraction of Bim BH3's signal on the same receptor and array of 0.04.

A further assay has as its target Bcl-xL, Q07817. Described as above.
B1 showed an SPOT signal as a fraction of Bim BH3's signal on the same receptor and array of 0.05.

Regarding B2, the SPOT signal as a fraction of Bim BH3's signal on the same receptor and array was found to be 0.06.

Molecule B5 came in with an SPOT signal as a fraction of Bim BH3's signal on the same receptor and array of 0.06.

In turn, B6 gave an SPOT signal as a fraction of Bim BH3's signal on the same receptor and array of 0.06.

As for B8, the SPOT signal as a fraction of Bim BH3's signal on the same receptor and array worked out at 0.06.

In the case of B9, the SPOT signal as a fraction of Bim BH3's signal on the same receptor and array was 0.06.

For the molecule B10, the SPOT signal as a fraction of Bim BH3's signal on the same receptor and array came to 0.07.

Consider B12, for which the SPOT signal as a fraction of Bim BH3's signal on the same receptor and array turned out to be 0.8.

Consider B13, for which the SPOT signal as a fraction of Bim BH3's signal on the same receptor and array came to 0.24.

The molecule B14 came in with an SPOT signal as a fraction of Bim BH3's signal on the same receptor and array of 1.07.

As for B15, the SPOT signal as a fraction of Bim BH3's signal on the same receptor and array came out at 0.07.

B17 displayed an SPOT signal as a fraction of Bim BH3's signal on the same receptor and array of 0.32.

Take B19: the SPOT signal as a fraction of Bim BH3's signal on the same receptor and array came to 0.07.

For B20, the SPOT signal as a fraction of Bim BH3's signal on the same receptor and array was found to be 0.07.

With B21, the SPOT signal as a fraction of Bim BH3's signal on the same receptor and array is 0.05.

As to B22, the SPOT signal as a fraction of Bim BH3's signal on the same receptor and array is 0.05.

As for B23, the SPOT signal as a fraction of Bim BH3's signal on the same receptor and array came to 0.74.

B24: the SPOT signal as a fraction of Bim BH3's signal on the same receptor and array was 0.06.

For the molecule B25, the SPOT signal as a fraction of Bim BH3's signal on the same receptor and array amounted to 0.05.

As for B27, the SPOT signal as a fraction of Bim BH3's signal on the same receptor and array was determined as 0.12.

A further assay concerns the target T2, Mcl-1, Q07820. The assay is described as above.
Turning to B1, the SPOT signal as a fraction of Bim BH3's signal on the same receptor and array was determined as 0.03.

The molecule B2 came in with an SPOT signal as a fraction of Bim BH3's signal on the same receptor and array of 0.04.

With B5, the SPOT signal as a fraction of Bim BH3's signal on the same receptor and array is 0.04.

For the molecule B6, the SPOT signal as a fraction of Bim BH3's signal on the same receptor and array turned out to be 0.05.

B8 registered an SPOT signal as a fraction of Bim BH3's signal on the same receptor and array of 0.06.

In turn, B9 came in with an SPOT signal as a fraction of Bim BH3's signal on the same receptor and array of 0.04.

B10 yielded an SPOT signal as a fraction of Bim BH3's signal on the same receptor and array of 0.05.

In turn, B12 registered an SPOT signal as a fraction of Bim BH3's signal on the same receptor and array of 0.57.

With B13, the SPOT signal as a fraction of Bim BH3's signal on the same receptor and array turned out to be 0.32.

B14 had an SPOT signal as a fraction of Bim BH3's signal on the same receptor and array of 0.76.

In the case of B15, the SPOT signal as a fraction of Bim BH3's signal on the same receptor and array stood at 0.04.

With B17, the SPOT signal as a fraction of Bim BH3's signal on the same receptor and array was determined as 0.21.

In turn, B19 registered an SPOT signal as a fraction of Bim BH3's signal on the same receptor and array of 0.06.

On to B20, for which the SPOT signal as a fraction of Bim BH3's signal on the same receptor and array turned out to be 0.04.

The molecule B21 came in with an SPOT signal as a fraction of Bim BH3's signal on the same receptor and array of 0.04.

The molecule B22 had an SPOT signal as a fraction of Bim BH3's signal on the same receptor and array of 0.05.

Turning to B23, the SPOT signal as a fraction of Bim BH3's signal on the same receptor and array came to 0.9.

Turning to B24, the SPOT signal as a fraction of Bim BH3's signal on the same receptor and array is 0.05.

Turning to B25, the SPOT signal as a fraction of Bim BH3's signal on the same receptor and array amounted to 0.03.

Regarding B27, the SPOT signal as a fraction of Bim BH3's signal on the same receptor and array was 0.04.

Another assay deals with T3, Bcl-w, Q92843. The description is as above.
Regarding B3, the SPOT signal as a fraction of Bim BH3's signal on the same receptor and array turned out to be 0.02.

The molecule B4 gave an SPOT signal as a fraction of Bim BH3's signal on the same receptor and array of 0.03.

With B7, the SPOT signal as a fraction of Bim BH3's signal on the same receptor and array was found to be 1.25.

For the molecule B11, the SPOT signal as a fraction of Bim BH3's signal on the same receptor and array was 0.89.

Molecule B16 showed an SPOT signal as a fraction of Bim BH3's signal on the same receptor and array of 0.02.

In the case of B18, the SPOT signal as a fraction of Bim BH3's signal on the same receptor and array was found to be 0.02.

In the case of B26, the SPOT signal as a fraction of Bim BH3's signal on the same receptor and array amounted to 0.74.

The target in a further assay is Bcl-2, P10415. Described as above.
Bcl-2, P10415, sequence (P10415 1-217): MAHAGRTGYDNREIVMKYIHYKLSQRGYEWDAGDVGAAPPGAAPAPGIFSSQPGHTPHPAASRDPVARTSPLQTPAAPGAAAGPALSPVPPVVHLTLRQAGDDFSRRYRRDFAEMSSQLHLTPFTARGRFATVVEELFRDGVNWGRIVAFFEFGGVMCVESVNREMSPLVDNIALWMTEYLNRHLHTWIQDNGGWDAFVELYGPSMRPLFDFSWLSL
B3: the SPOT signal as a fraction of Bim BH3's signal on the same receptor and array was 0.01.

As to B4, the SPOT signal as a fraction of Bim BH3's signal on the same receptor and array came out at 0.01.

In turn, B7 registered an SPOT signal as a fraction of Bim BH3's signal on the same receptor and array of 0.36.

For the molecule B11, the SPOT signal as a fraction of Bim BH3's signal on the same receptor and array worked out at 0.1.

For the molecule B16, the SPOT signal as a fraction of Bim BH3's signal on the same receptor and array came to 0.01.

B18 registered an SPOT signal as a fraction of Bim BH3's signal on the same receptor and array of 0.01.

Turning to B26, the SPOT signal as a fraction of Bim BH3's signal on the same receptor and array was 0.72.
